Experimental data reported in patent publication US8278415B2 (Centocor, Inc., dated 2012).

The binders below were run against sEGFR-MMB (human) (assay: phage ELISA on coated sEGFR-MMB, chemiluminescence (background typically <200 units)).
Chain of sEGFR-MMB (human) (chain, as listed by the source limits assumed): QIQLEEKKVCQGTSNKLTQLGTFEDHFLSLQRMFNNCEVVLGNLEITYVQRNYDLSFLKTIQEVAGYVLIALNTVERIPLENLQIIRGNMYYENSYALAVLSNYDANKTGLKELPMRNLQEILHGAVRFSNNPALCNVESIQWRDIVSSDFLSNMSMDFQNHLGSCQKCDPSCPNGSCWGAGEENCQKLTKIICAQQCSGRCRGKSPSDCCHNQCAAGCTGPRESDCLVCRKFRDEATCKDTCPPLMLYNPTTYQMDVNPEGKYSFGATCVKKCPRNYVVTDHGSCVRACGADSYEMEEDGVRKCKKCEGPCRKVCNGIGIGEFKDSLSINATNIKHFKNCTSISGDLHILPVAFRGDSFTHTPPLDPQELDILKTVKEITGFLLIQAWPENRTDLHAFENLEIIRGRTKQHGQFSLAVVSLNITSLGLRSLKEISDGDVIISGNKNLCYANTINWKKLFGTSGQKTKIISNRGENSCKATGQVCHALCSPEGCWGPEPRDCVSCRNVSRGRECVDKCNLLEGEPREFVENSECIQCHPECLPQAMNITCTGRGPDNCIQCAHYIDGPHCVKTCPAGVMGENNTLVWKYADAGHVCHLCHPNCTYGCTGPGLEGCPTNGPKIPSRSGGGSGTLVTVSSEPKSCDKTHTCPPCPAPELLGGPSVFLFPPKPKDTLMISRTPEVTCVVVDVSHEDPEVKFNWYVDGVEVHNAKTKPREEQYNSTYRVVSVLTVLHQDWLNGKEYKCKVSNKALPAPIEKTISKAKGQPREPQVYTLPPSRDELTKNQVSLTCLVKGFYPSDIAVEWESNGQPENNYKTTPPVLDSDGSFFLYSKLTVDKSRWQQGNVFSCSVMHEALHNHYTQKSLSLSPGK

First: STITSLPTLQCWPIL [S15 library phage peptide of SEQ ID NO: 16]
Second: NWFSLPTLLCFPLNP [S15 library phage peptide of SEQ ID NO: 15]
The ELISA of the first is higher: 13300 units for the first, 3670 units for the second.

Compared with VSGILPILVCHPAAT [S15 library phage peptide of SEQ ID NO: 12], GADTLPDLLCWESSL [S15 library phage peptide of SEQ ID NO: 19] is higher in ELISA: 1110 units for the first, 5720 units for the second.

Compared with PIFSSLPVLYCTSQL [S15 library phage peptide of SEQ ID NO: 18], YRLFVDESIFFCTRL [S15 library phage peptide of SEQ ID NO: 10] is higher in ELISA: 1420 units for the first, 3080 units for the second.

First: LPDDSLPELICKVRG [P175]
Second: PIDDESLPVLYCVTS [S15 library phage peptide of SEQ ID NO: 17]
The ELISA of the first is higher: 6790 units for the first, 1780 units for the second.

Going from TVFTLPELVCVVAGT [S15 library phage peptide of SEQ ID NO: 20] to ELGLPTLLCWPTDTL [S15 library phage peptide of SEQ ID NO: 11], the ELISA rises from 1520 units to 9380 units.

Compared with LPDLICAVDSGTSGA [S15 library phage peptide of SEQ ID NO: 21], HVSLQSLPELICVVS [S15 library phage peptide of SEQ ID NO: 14] is higher in ELISA: 1160 units for the first, 1360 units for the second.

Target: sEGFR-MMB (human)
Assay: as above
Remark: another data set of the same source

Compared with KHCILFEKTVYCAK [S18 library phage peptide of SEQ ID NO: 26], TDCVRFGETIYCIV [S18 library phage peptide of SEQ ID NO: 33] is higher in ELISA: 9110 units for the first, 13300 units for the second.

Compared with TDCVIFGLETYCLR [P173], AGCIAFVDVVYCAR [S18 library phage peptide of SEQ ID NO: 23] is lower in ELISA: 37900 units for the first, 6380 units for the second.

Compared with TDCIRFGVLWYCLV [S18 library phage peptide of SEQ ID NO: 28], AKCIAFGNSVYCLN [S18 library phage peptide of SEQ ID NO: 24] is higher in ELISA: 4750 units for the first, 31500 units for the second.

Compared with RGCVVFGDNIYCIV [S18 library phage peptide of SEQ ID NO: 35], DSCIQFANLLYCAI [S18 library phage peptide of SEQ ID NO: 27] is higher in ELISA: 22000 units for the first, 53200 units for the second.

Compared with YDCVSFGAVAYCPQ [S18 library phage peptide of SEQ ID NO: 34], AYCSFVAGDLVCQV [S18 library phage peptide of SEQ ID NO: 30] is higher in ELISA: 3200 units for the first, 19800 units for the second.

Compared with SDCVLFGSKLFCSA [S18 library phage peptide of SEQ ID NO: 32], RACITFGKVVYCEV [S18 library phage peptide of SEQ ID NO: 29] is lower in ELISA: 35300 units for the first, 30700 units for the second.

In the case of RDCIIFDKTVYCVI [S18 library phage peptide of SEQ ID NO: 25], the ELISA is reported as 17100 units.

Target: sEGFR-MMB (human)
Assay: as above
Remark: another data set of the same source

Compared with MICYLVDSGNIICYK [P180], CDCREAVSASLVCRY [S19 library phage peptide of SEQ ID NO: 41] is lower in ELISA: 8810 units for the first, 3350 units for the second.

Compared with AFCRLDFNQWLTCLV [S19 library phage peptide of SEQ ID NO: 40], GPCVLIRDYYLLCLE [P179] is higher in ELISA: 2580 units for the first, 14000 units for the second.

For YDCMIRADGSLICWC [S19 library phage peptide of SEQ ID NO: 38], the ELISA was 1290 units.

Target: sEGFR-MMB (human)
Assay: as above
Remark: another data set of the same source

Going from WMCFLEGYGASLMCQC [S20 library phage peptide of SEQ ID NO: 44] to YICTPSDIDSWYICYL [S20 library phage peptide of SEQ ID NO: 46], the ELISA rises from 4800 units to 6620 units.

Going from DSCCSFLTDGTVVCSL [S20 library phage peptide of SEQ ID NO: 45] to LLCATTSFRDWFVCFT [S20 library phage peptide of SEQ ID NO: 49], the ELISA falls from 9540 units to 4510 units.

Compared with PTCDSATRRVLTICAD [S20 library phage peptide of SEQ ID NO: 43], SVCVGTAFPGWMVCGP [S20 library phage peptide of SEQ ID NO: 47] is lower in ELISA: 5420 units for the first, 4770 units for the second.

KTCVSTTFDLWFVCFA [P176] gave an ELISA of 37400 units.

Target: sEGFR-MMB (human)
Assay: as above
Remark: another data set of the same source

First: DACTMVFLWCSL [P177]
Second: SGCLDALWQCVY [P174]
The ELISA of the first is lower: 8660 units for the first, 34600 units for the second.

For RWCYFWWITICEL [P178], the ELISA was 7910 units.
